Measurements as given in publication PMC9458431, “2′-O-Methylation of the second transcribed nucleotide within the mRNA 5′ cap impacts the protein production level in a cell-specific manner and contributes to RNA immune evasion”.

What was measured:
Conditions in all cases: protein: recombinant
[1] = biological target: T1, eIF4E (murine) (Mus musculus, UniProt P63073 28-217); experiment: MST competition; vs 10 nM m7Gp5OC3(5)FAM; KD,app only in figure; MST: 50 mM HEPES-KOH pH 7.2, 100 mM KCl, 0.5 mM EDTA, 0.05% Tween-20, 25 C, 50 nM eIF4E, 10 nM probe; pull-down: 20 mM Tris-HCl pH 7.4, 150 mM NaCl, 2 mM MgCl2, 2 mM DTT, 0.2% IGEPAL, 4 C
[2] = biological target: T1, eIF4E (murine); experiment: MST competition; vs m7Gp5OC3(5)FAM; as cap0(A); MST: 50 mM HEPES-KOH pH 7.2, 100 mM KCl, 0.5 mM EDTA, 0.05% Tween-20, 25 C, 50 nM eIF4E, 10 nM probe; pull-down: 20 mM Tris-HCl pH 7.4, 150 mM NaCl, 2 mM MgCl2, 2 mM DTT, 0.2% IGEPAL, 4 C
[3] = biological target: T1, eIF4E (murine); experiment: MST competition; vs m7Gp5OC3(5)FAM; not destabilized by m6A; MST: 50 mM HEPES-KOH pH 7.2, 100 mM KCl, 0.5 mM EDTA, 0.05% Tween-20, 25 C, 50 nM eIF4E, 10 nM probe; pull-down: 20 mM Tris-HCl pH 7.4, 150 mM NaCl, 2 mM MgCl2, 2 mM DTT, 0.2% IGEPAL, 4 C

T1 sequence (P63073 28-217): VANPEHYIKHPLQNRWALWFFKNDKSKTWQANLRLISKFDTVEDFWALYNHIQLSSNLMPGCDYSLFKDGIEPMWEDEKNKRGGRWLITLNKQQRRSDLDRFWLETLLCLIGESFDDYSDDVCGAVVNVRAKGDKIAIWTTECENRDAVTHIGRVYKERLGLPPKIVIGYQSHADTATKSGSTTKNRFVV

AGGGGAAGCGGGCAUGCGGCCAGCCA (ssRNA, m7Gppp-A) [cap0(A) RNA]
binding result [1]: binds

AGGGGAAGCGGGCAUGCGGCCAGCCA (ssRNA, m7Gppp-AmpGm (2'-O-Me at nt 1 and 2)) [cap2(A) RNA]
binding result [2]: binds

AGGGGAAGCGGGCAUGCGGCCAGCCA (ssRNA, m7Gppp-ApGm (2'-O-Me at nt 2 only)) [cap2-1(A) RNA]
binding result [2]: binds

AGGGGAAGCGGGCAUGCGGCCAGCCA (ssRNA, m7Gppp-m6ApGm) [cap2-1(m6A) RNA]
binding result [3]: binds

AGGGGAAGCGGGCAUGCGGCCAGCCA (ssRNA, m7Gppp-Am (2'-O-Me at nt 1)) [cap1(A) RNA]
binding result [2]: binds
